The text below walks through data of patent US20170137513A1.

This test has as its target T1, monkey CD22 (Rhesus monkey) (UniProt H9G1X2).
T1 sequence: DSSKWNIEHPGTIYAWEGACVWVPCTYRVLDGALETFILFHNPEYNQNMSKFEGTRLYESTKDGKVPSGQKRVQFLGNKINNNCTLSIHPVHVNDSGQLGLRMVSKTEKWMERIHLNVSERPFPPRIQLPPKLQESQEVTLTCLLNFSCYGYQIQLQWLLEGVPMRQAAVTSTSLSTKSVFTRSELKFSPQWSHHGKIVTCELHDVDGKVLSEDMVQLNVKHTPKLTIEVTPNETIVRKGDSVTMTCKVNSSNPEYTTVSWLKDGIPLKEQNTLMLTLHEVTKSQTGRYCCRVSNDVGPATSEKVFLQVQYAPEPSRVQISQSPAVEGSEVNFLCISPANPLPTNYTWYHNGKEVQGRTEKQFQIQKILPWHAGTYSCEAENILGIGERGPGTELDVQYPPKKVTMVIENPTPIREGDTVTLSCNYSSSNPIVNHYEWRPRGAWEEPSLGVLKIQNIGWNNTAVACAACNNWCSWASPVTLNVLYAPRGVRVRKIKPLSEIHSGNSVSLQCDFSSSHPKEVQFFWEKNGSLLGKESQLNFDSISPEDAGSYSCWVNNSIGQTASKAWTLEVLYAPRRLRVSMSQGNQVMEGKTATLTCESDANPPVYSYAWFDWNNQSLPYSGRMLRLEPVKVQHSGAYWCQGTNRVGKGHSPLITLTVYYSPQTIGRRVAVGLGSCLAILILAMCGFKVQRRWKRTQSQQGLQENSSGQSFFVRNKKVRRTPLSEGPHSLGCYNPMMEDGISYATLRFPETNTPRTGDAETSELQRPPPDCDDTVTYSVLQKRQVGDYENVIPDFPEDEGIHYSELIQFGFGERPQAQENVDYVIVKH
Briefly: flow cytometry, direct immunofluorescence on Rhesus monkey PBMC. Background: Flow cytometry measures light scatter and fluorescence of single cells or particles in a stream.

B1: RFB4 monoclonal antibody (antibody, V domains shown)
VH: EVQLVESGGGLVKPGGSLKLSCAASGFAFSIYDMSWVRQTPEKRLEWVAYISSGGGTTYYPDTVKGRFTISRDNAKNTLYLQMSSLKSEDTAMYYCARHSGYGSSYGVLFAYWGQGTLVTVSA
VL: DIQMTQTTSSLSASLGDRVTISCRASQDISNYLNWYQQKPDGTVKLLIYYTSILHSGVPSRFSGSGSGTDYSLTISNLEQEDFATYFCQQGNTLPWTFGGGTKLEIK
In turn, B1 registered a percent positive cells of 31.3%.
